Measurements: paper PMC6037002, “Drug targeting to decrease cardiotoxicity – determination of the cytotoxic effect of GnRH-based conjugates containing doxorubicin, daunorubicin and methotrexate on human cardiomyocytes and endothelial cells” (Beilstein Journal of Organic Chemistry, 2018)
Like-named read-outs stand apart in the source and are kept apart here.

Tests used:
[1] = tested on: human acute monocytic leukemia (MonoMac6) cells; conditions: cited from earlier work
Source text: (§1) Table 1 Comparative study of cytotoxic effects and cardiotoxicity elicited by GnRH-based antitumor compounds (1–15) and reference substances (AN-152, Dox, Dau, Mtx). IC50 values show antitumor cytotoxic characteristics of the conjugates in human breast cancer (MCF-7), human colorectal adenocarcinoma (HT-29) and human acute monocytic leukemia (MM6) derived cell lines as representative tumor cells.

[2] = tested on: HT-29 human colon adenocarcinoma cells; conditions: MTT assay; cited from earlier work
Source text: as §1

[3] = tested on: MCF-7 human breast adenocarcinoma cells; conditions: MTT assay; cited from earlier work
Source text: as §1

[4] = tested on: primary human cardiac myocytes (HCM); conditions: for delta slope (DS), short-term / delta slope (DS), long-term: HCM, three parallels; for delta slope (DS), short-term: 0–2 h; for delta slope (DS), long-term: 0–72 h; for Cardiotoxicity, HCM: grade +++/++/+/0, key not given, summary of impedimetric cytotoxicity; for cytotoxic effect on HCM, result in words: long-term (0–72 h), 10^−8–10^−6 mol/L (free drugs 10^−12–10^−6 mol/L), impedimetry, one-way ANOVA
Source text: (§2) The main objective of the study reported here was to evaluate the in vitro cardiotoxic effects (as undesired side effects) of […] GnRH-III-based conjugates containing doxorubicin, daunorubicin and methotrexate on two essential target cells of cardiovascular diseases: vascular endothelial cells and cardiomyocytes. The rate of cytotoxicity (antitumor effect) vs cardiotoxicity (toxic effects on cardiomyocytes and vascular endothelium) is an important factor for efficient drug development for targeted tumor therapy with minimized side effects. The technique used in this work – impedimetry – is a dedicated one for real-time monitoring of cells to distinguish short-term (0–2 hours) and long-term (0–72 hours) effects elicited by the drug or carrier–drug conjugates. The basic theory of impedimetry is that proliferation/viability of cells is well detectable by monitoring of the electric impedance (Z) in an AC environment, due to the electric insulator character of intact surface membranes composed of the phospholipid bilayer. […] While cell physiological responses of short-term exposures result in characteristic changes of cell morphology (e.g., spreading), long-term effects characteristically influence in particular the proliferation of cells, and therefore the cytotoxic effects. The presented dimensionless values of delta slope (DS) measure the difference between the slope of the curve corresponding to the treatment and that of the control curve in impedimetric recordings, the negative signs refer to the relative values to the identical control.
(§3) Experimental part – Cellular samples
(§4) In the present study, GnRH conjugates containing anti-tumour drugs (e.g., daunorubicin, doxorubicin) were investigated in order to evaluate whether the conjugates exert a decrease cardiotoxic effect compared to that of the free drugs. The cardiac myocytes and the vascular endothelium cells are the most frequently detected target cells of antitumor compounds and they are employed in our study. Human umbilical vein endothelial cells (HUVEC; Promocell, Biomedica, Wien, Austria) were cultured in Endothelial Cell Growth Medium with Endothelial Cell Growth Supplement Mix (Promocell, Biomedica, Wien, Austria) and 100 µg/mL penicillin/streptomycin. Primary human cardiac myocytes (HCM; Promocell, Biomedica, Wien, Austria) were cultured in Myocyte Growth Medium (Promocell, Biomedica, Wien, Austria).
(§5) Impedimetric measurements
(§6) The xCELLigence SP system was used for impedimetric measurements. The bottom of the wells of a 96-well E-plate is installed with a golden electrode array that constitutes the adhesion surface. Adhering cells – acting as insulators – change the electric impedance measured on the electrodes. The measured impedance change is in direct correlation with the number of adhering cells and the extent of adhesion. The results of impedance change are given in the form of Cell Index (CI) calculated by the xCELLigence system according to the […]
(§7) where Zt is the measured impedance in a time point, Zb is the background impedance and F is an inbuilt factor (F = 15 at 10 kHz) depending on the frequency of the alternating current. The measurements took place in an incubator holding a 37 °C temperature and 5% carbon-dioxide […]
(§8) The experiments started with a measurement of baseline impedance for 1 hour. After that, the cells (10^4 cells/well) were added to the wells and allowed to adhere to the electrodes. When the adhering cells reached a balanced state in the wells, signified by the impedance curves […]
(§9) free drugs at 10−12 – 10−6 M and the conjugates at 10−8 – 10−6 M final concentrations were […]
(§10) added to the wells. The changes in impedance were measured for at least 72 hours. For each measurement three parallels were measured.
(§11) The evaluation of responses followed the previously described strategy: acute effects of compounds were evaluated as a characteristic morphology of the curves in the 0–2 hours

[5] = tested on: human umbilical vein endothelial cells (HUVEC); assay: Impedimetric measurement (xCELLigence SP), delta slope, HUVEC; conditions: for delta slope (DS), short-term / delta slope (DS), long-term: HUVEC, three parallels; for delta slope (DS), short-term: 0–2 h; for delta slope (DS), long-term: 0–72 h; for Cardiotoxicity, HUVEC: grade +++/++/+/0, key not given, summary of impedimetric cytotoxicity; for cytotoxic effect on HUVEC, result in words: long-term (0–72 h), 10^−8–10^−6 mol/L, impedimetry, one-way ANOVA
Source text: as §2, §3, §4, §5, §6, §7, §8, §9, §10, §11

## GnRH-III(Dau=Aoa-K(Dau=Aoa)) [conjugate 12]
[1]
  IC50: > 1000 nM
[2]
  IC50: 5600 ± 2000 nM
[3]
  IC50: 3000 ± 400 nM
[4]; Table S3b, 10^-6 mol/L
  delta slope (DS), short-term: -0.001
  delta slope (DS), long-term: -0.002
[4]; Table S3b, 10^-7 mol/L
  delta slope (DS), short-term: -0.001
  delta slope (DS), long-term: -0.001
[4]; Table S3b, 10^-8 mol/L
  delta slope (DS), short-term: -0.001
  delta slope (DS), long-term: -0.001
[4]
  Cardiotoxicity, HCM: 0
  cytotoxic effect on HCM, result in words: completely lost their cytotoxic effect
[5]; Table S3a, 10^-6 mol/L
  delta slope (DS), short-term: -0.003
  delta slope (DS), long-term: -0.001
[5]; Table S3a, 10^-7 mol/L
  delta slope (DS), short-term: 0.010
  delta slope (DS), long-term: -0.001
[5]; Table S3a, 10^-8 mol/L
  delta slope (DS), short-term: 0.009
  delta slope (DS), long-term: -0.001
[5]
  Cardiotoxicity, HUVEC: 0
  cytotoxic effect on HUVEC, result in words: completely lost the cytotoxic effect

## GnRH-III(Mtx-K(Dau=Aoa)) [conjugate 13]
[1]
  IC50: 1410 ± 390 nM
[2]
  IC50: 5600 ± 3000 nM
[3]
  IC50: 5400 ± 700 nM
[4]; Table S5b, 10^-6 mol/L
  delta slope (DS), short-term: -0.003
  delta slope (DS), long-term: -0.001
[4]; Table S5b, 10^-7 mol/L
  delta slope (DS), short-term: 0.002
  delta slope (DS), long-term: -0.001
[4]; Table S5b, 10^-8 mol/L
  delta slope (DS), short-term: -0.002
  delta slope (DS), long-term: -0.001
[4]
  Cardiotoxicity, HCM: 0
  cytotoxic effect on HCM, result in words: none of the two investigated mixed drug–GnRH-III conjugates (13 and 15) exerted any significant cytotoxic effect
[5]; Table S5a, 10^-6 mol/L
  delta slope (DS), short-term: 0.013
  delta slope (DS), long-term: 0.001
[5]; Table S5a, 10^-7 mol/L
  delta slope (DS), short-term: 0.002
  delta slope (DS), long-term: 0.001
[5]; Table S5a, 10^-8 mol/L
  delta slope (DS), short-term: 0.001
  delta slope (DS), long-term: -0.001
[5]
  Cardiotoxicity, HUVEC: 0
  cytotoxic effect on HUVEC, result in words: no significant effect was detected

## GnRH-III(Dau=Aoa) [conjugate 4]
[1]
  IC50: > 1000 nM
[2]
  IC50: 27800 ± 4200 nM
[3]
  IC50: 6500 ± 1800 nM
[4]; Table S3b, 10^-6 mol/L
  delta slope (DS), short-term: 0.001
  delta slope (DS), long-term: -0.001
[4]; Table S3b, 10^-7 mol/L
  delta slope (DS), short-term: -0.001
  delta slope (DS), long-term: -0.001
[4]; Table S3b, 10^-8 mol/L
  delta slope (DS), short-term: -0.002
  delta slope (DS), long-term: -0.001
[4]
  Cardiotoxicity, HCM: 0
  cytotoxic effect on HCM, result in words: completely lost their cytotoxic effect
[5]; Table S3a, 10^-6 mol/L
  delta slope (DS), short-term: -0.003
  delta slope (DS), long-term: -0.001
[5]; Table S3a, 10^-7 mol/L
  delta slope (DS), short-term: -0.003
  delta slope (DS), long-term: -0.001
[5]; Table S3a, 10^-8 mol/L
  delta slope (DS), short-term: 0.001
  delta slope (DS), long-term: -0.001
[5]
  Cardiotoxicity, HUVEC: 0
  cytotoxic effect on HUVEC, result in words: completely lost the cytotoxic effect

## Glp-His-Trp-Ser-Tyr-D-Lys(Dox-O-glut)-Leu-Arg-Pro-Gly-NH2 [AN-152, reference compound]
[1]
  IC50: 35 ± 10 nM
[2]
  IC50: 1900 ± 300 nM
[3]
  IC50: 200 ± 100 nM
[4]; Table S2b, 10^-6 mol/L
  delta slope (DS), short-term: 0.008
  delta slope (DS), long-term: −0.023
[4]; Table S2b, 10^-7 mol/L
  delta slope (DS), short-term: -0.001
  delta slope (DS), long-term: −0.008
[4]; Table S2b, 10^-8 mol/L
  delta slope (DS), short-term: 0.001
  delta slope (DS), long-term: -0.001
[4]; Table S2b, 10^-6 mol/L, listed as An-152
  delta slope (DS), long-term: -0.023
[4]; Table S2b, 10^-7 mol/L, listed as An-152
  delta slope (DS), long-term: -0.008
[5]; Table S2a, 10^-6 mol/L
  delta slope (DS), short-term: 0.031
  delta slope (DS), long-term: −0.051
[5]; Table S2a, 10^-7 mol/L
  delta slope (DS), short-term: 0.014
  delta slope (DS), long-term: −0.029
[5]; Table S2a, 10^-8 mol/L
  delta slope (DS), short-term: -0.004
  delta slope (DS), long-term: -0.005
[5]; Table S2a, 10^-6 mol/L, listed as An-152
  delta slope (DS), long-term: -0.051
[5]; Table S2a, 10^-7 mol/L, listed as An-152
  delta slope (DS), long-term: -0.029
